Measured values: US20230242607A1 (EUTILEX, published 2023)
Residue numbers refer to the chain shown, from its start. Like-named read-outs stand apart in the source and are kept apart here. Values belong to the binder of their own block, whether it stands above or below them.

Experiments:
Assay in all cases: SPR, Biacore T200; IL-2-Fc on CM5 chip, receptor injected; 1:1 model
IL2-RB [1] = target: T1, IL2-RB (UniProt P14784 27-239, limits assumed)
T1 construct: Bought recombinant protein (Sino); also called CD122; IL-2Rβ
T1 sequence (looked up): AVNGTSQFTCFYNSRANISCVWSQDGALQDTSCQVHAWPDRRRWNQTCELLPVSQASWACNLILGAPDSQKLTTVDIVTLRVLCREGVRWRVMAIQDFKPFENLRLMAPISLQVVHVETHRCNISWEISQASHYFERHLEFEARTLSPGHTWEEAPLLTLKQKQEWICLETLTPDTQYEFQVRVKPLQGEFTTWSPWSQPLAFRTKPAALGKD
Description: The affinity of IL-2 variants to IL-2 receptors, IL2-RA and IL2-RB, was analyzed using surface plasmon resonance (SPR). The IL-2 variants were diluted to a concentration of 2 ug/mL then immobilized on CM5 chip (GE Healthcare, Cat#BR-1005-30). The receptors IL-2RA or IL-2RB (Sino) were injected at concentrations 100, 50, 25, 12.5, 6.25, 3.125 nM with an association time of 150 seconds and dissociation time of 240 seconds. Biacore T200 (GE healthcare) was used to measure and analyze affinity of each IL-2 variant, where the results were analyzed with a 1:1 binding model by BIAevaluation software.

IL2-RB [2] = target: T1, IL2-RB; remark: listed apart in the source
Description: (§1) The affinity of additional IL-2 variants to IL-2 receptors, IL2-RA and IL2-RB, was analyzed using surface plasmon resonance (SPR). The IL-2 variants were diluted to a concentration of 2 ug/mL then immobilized on CM5 chip (GE Healthcare, Cat#BR-1005-30). Biacore T200 (GE healthcare) was used to measure and analyze affinity of each IL-2 variant, where the results were analyzed with a 1:1 binding model by BIAevaluation software, as described in Example 4.

IL2-RA = target: T2, IL2-RA (UniProt P01589 22-213, limits assumed)
T2 construct: Bought recombinant protein (Sino); also called CD25; IL-2Rα
T2 sequence (looked up): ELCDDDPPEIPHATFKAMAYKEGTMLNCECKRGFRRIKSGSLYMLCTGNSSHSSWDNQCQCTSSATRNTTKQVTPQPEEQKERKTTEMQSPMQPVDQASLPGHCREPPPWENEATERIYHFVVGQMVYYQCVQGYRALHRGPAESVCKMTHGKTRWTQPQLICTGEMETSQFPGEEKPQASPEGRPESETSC
Description: as §1

B1: IL2_V1 Fc fusion protein (Fc fusion)
chain: APTSSSTKKTQLQLEHLLLDLQMILNGINNYKNPKLTAMLTKKFYMPKKATELKHLQCLEEELKPLEEVLNLAQSKNFHLDPRDVVSNINVFVLELKGSETTFMCEYADETATIVEFLNRWITFCQSIISTLTGGGGSSNTKVDKRVEPKSCDKTHTCPPCPAPPVAGPSVFLFPPKPKDTLMISRTPEVTCVVVDVSHEDPEVQFNWYVDGVEVHNAKTKPREEQFNSTFRVVSVLTVVHQDWLNGKEYKCKVSNKGLPAPIEKTISKTKGQPREPQVYTLPPSREEMTKNQVSLTCLVKGFYPSDIAVEWESNGQPENNYKTTPPMLDSDGSFFLYSKLTVDKSRWQQGNVFSCSVMHEALHNHYTQKSLSLSPGK
Kd (IL2-RB [1]): 66.6 nM
koff (IL2-RB [1]): 0.0116 s⁻¹
kon (IL2-RB [1]): 174000 M⁻¹ s⁻¹

B3: IL2_V3 Fc fusion protein (Fc fusion)
chain: B1 chain with L80F, V85L
Kd (IL2-RB [1]): 218 nM
koff (IL2-RB [1]): 0.0179 s⁻¹
kon (IL2-RB [1]): 82400 M⁻¹ s⁻¹

B4: IL2_V4 Fc fusion protein (Fc fusion)
chain: B1 chain with L80F, V86I
Kd (IL2-RB [1]): 29 nM
koff (IL2-RB [1]): 0.00511 s⁻¹
kon (IL2-RB [1]): 176000 M⁻¹ s⁻¹
Kd (IL2-RB [2]): 8.99 nM
koff (IL2-RB [2]): 0.00532 s⁻¹
kon (IL2-RB [2]): 592000 M⁻¹ s⁻¹

B5: IL2_V4_F42A Fc fusion protein (Fc fusion)
chain: B1 chain with A38R, K42A, L80F, V86I
Kd (IL2-RB [2]): 9.43 nM
koff (IL2-RB [2]): 0.00492 s⁻¹
kon (IL2-RB [2]): 522000 M⁻¹ s⁻¹
Kd (IL2-RA): 6.75 nM
koff (IL2-RA): 0.000789 s⁻¹
kon (IL2-RA): 117000 M⁻¹ s⁻¹

B6: IL2_V2 Fc fusion protein (Fc fusion)
chain: B1 chain with L80F, D81R
Kd (IL2-RB [1]): 124 nM
koff (IL2-RB [1]): 0.0158 s⁻¹
kon (IL2-RB [1]): 128000 M⁻¹ s⁻¹

The next lines start with the values.

Kd (IL2-RB [1]): 29.5 nM
koff (IL2-RB [1]): 0.004 s⁻¹
kon (IL2-RB [1]): 136000 M⁻¹ s⁻¹
B2: supMD IL-2 Fc fusion protein (Fc fusion)
chain: B1 chain with L80F

Kd (IL2-RB [2]): 7.33 nM
koff (IL2-RB [2]): 0.00556 s⁻¹
kon (IL2-RB [2]): 759000 M⁻¹ s⁻¹
Kd (IL2-RA): 3.31 nM
koff (IL2-RA): 0.00227 s⁻¹
kon (IL2-RA): 685000 M⁻¹ s⁻¹
B7: IL2_V4_R38A Fc fusion protein (Fc fusion)
chain: B1 chain with K42F, L80F, V86I

Kd (IL2-RB [2]): 7.5 nM
koff (IL2-RB [2]): 0.00504 s⁻¹
kon (IL2-RB [2]): 671000 M⁻¹ s⁻¹
Kd (IL2-RA): 1230 nM
koff (IL2-RA): 0.00562 s⁻¹
kon (IL2-RA): 4560 M⁻¹ s⁻¹
B8: IL2_V4_R38A_F42A Fc fusion protein (Fc fusion)
chain: B1 chain with K42A, L80F, V86I

Kd (IL2-RB [1]): 76.7 nM
koff (IL2-RB [1]): 0.00936 s⁻¹
kon (IL2-RB [1]): 122000 M⁻¹ s⁻¹
B9: IL2_V5 Fc fusion protein (Fc fusion)
chain: B1 chain with L80F, F92I
